Experimental data reported in patent US20120201746A1 (AbbVie / Abbott, published 2012).

B1: ½ hTNFaR Fc (Fc fusion)
chain: LPAQVAFTPYAPEPGSTCRLREYYDQTAQMCCSKCSPGQHAKVFCTKTSDTVCDSCEDSTYTQLWNWVPECLSCGSRCSSDQVETQACTREQNRICTCRPGWYCALSKQEGCRLCAPLRKCRPGFGVARPGTETSDVVCKPCAPGTFSNTTSSTDICRPHQICNVVAIPGNASMDAVCTSTSPTRSMAPGAVHLPQPVSTRSQHTQPTPEPSTAPSTSFLLPMGPSPPAEGSTGDEPKSSDKTHTSPPSPAPELLGGPSVFLFPPKPKDTLMISRTPEVTCVVVDVSHEDPEVKFNWYVDGVEVHNAKTKPREEQYNSTYRVVSVLTVLHQDWLNGKEYKCKVSNKALPAPIEKTISKAKGQPREPQVYTLPPSREEMTKNQVSLTCLVKGFYPSDIAVEWESNGQPENNYKTTPPVLDSDGSFRLYSKLTVDKSRWQQGNVFSCSVMHEALHNHYTQKSLSLSPGK
notes: Half receptor-Fc with Fc-Mut18; 55 % half-Ig by SEC; also called half hTNFaR Fc
B2: Anti-CD28 Ig (parental antibody 9.3) (antibody, human IgG1, kappa, V domains shown)
VH: QVKLQQSGAELVKPGASVRLSCKASGYTFTEYIIHWIKLRSGQGLEWIGWFYPGSNDIQYNAKFKGKATLTADKSSSTVYMELTGLTSEDSAVYFCARRDDFSGYDALPYWGQGTMVTVSS
VL: DIQMTQSPASLSVSVGETVTITCRTNENIYSNLAWYQQKQGKSPQLLIYAATHLVEGVPSRFSGSGSGTQYSLKITSLQSEDFGNYYCQHFWGTPCTFGGGTKLEIKR
notes: 9.3 variable domains on human Cg1 (z, non-a) and human Ck; also called anti-CD28 antibody 9.3

Key:
[1] = target: Recombinant Human TNF-α/TNFSF1A (human, UniProt P01375 77-233); assay: SPR (BIAcore)
Recombinant Human TNF-α/TNFSF1A, sequence (P01375 77-233 limits assumed): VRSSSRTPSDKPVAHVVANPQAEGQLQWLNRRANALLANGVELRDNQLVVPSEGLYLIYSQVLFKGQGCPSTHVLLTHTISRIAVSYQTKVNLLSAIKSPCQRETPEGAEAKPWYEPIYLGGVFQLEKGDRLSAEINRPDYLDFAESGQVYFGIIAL
Protocol: The BIAcore® assay (BIAcore®, Inc, Piscataway, N.J.) determines the affinity of antibodies with kinetic measurements of on-rate and off-rate constants. Binding of antibodies to a target antigen (for example, a purified recombinant target antigen) is determined by surface plasmon resonance-based measurements with a BIAcore® 1000 or 3000 instrument (BIAcore® AB, Uppsala, Sweden) using running HBS-EP (10 mM HEPES [pH 7.4], 150 mM NaCl, 3 mM EDTA, and 0.005% surfactant P20) at 25° C. […] Unreacted moieties on the biosensor surface are blocked with ethanolamine. Modified carboxymethyl dextran surface in flowcell 2 and 4 is used as a reaction surface. Unmodified carboxymethyl dextran without goat anti-mouse IgG in flow cell 1 and 3 is used as the reference surface. For kinetic analysis, rate equations derived from the 1:1 Langmuir binding model are fitted simultaneously to association and dissociation phases of all eight injections (using global fit analysis) with the use of Biaevaluation 4.0.1 software. Purified antibodies are diluted in HEPES-buffered saline for capture across goat anti-mouse IgG specific reaction surfaces. […] The association and dissociation rate constants, kₒₙ (M⁻¹s⁻¹) and koff (s⁻¹), are determined under a continuous flow rate of 25 μl/minute. Rate constants are derived by making kinetic binding measurements at different antigen concentrations ranging from 10-200 nM. The equilibrium dissociation constant (M) of the reaction between antibodies and the target antigen is then calculated from the kinetic rate constants by the following formula: KD=koff/kₒₙ. Binding is recorded as a function of time and kinetic rate constants are calculated.

[2] = target: T1, cell surface CD28 on Jurkat E6-1 cells (UniProt P10747 19-220, limits assumed); assay: flow cytometry on Jurkat E6-1 cells
T1 construct: whole, on cells; Jurkat is a human cell line
Protocol: Jurkat E6-1 cells (ATCC, Manassas, Va.) were harvested and washed with PBS, and resuspended in ice cold PBS with 10% FCS (GIBCO®) at 2×10⁷ cells/ml. Anti-CD28 antibodies or half-Ig binding protein (1 μl) was added to tubes containing 100 μl of cell suspension, then incubated on ice for 30 min. The cells were washed 3 times and resuspended in ice cold PBS, then stained with PE labeled anti-human IgG1 antibody (Southern Biotech, Birmingham, Ala.) according to manufacturer's instructions. After secondary staining, the cells were washed and resuspended in ice cold PBS with 10% FCS. FACS analysis was performed on a FACScan (Becton Dickinson, Franklin Lakes, N.J.).

Binder	kon [1] [M⁻¹ s⁻¹]	binding result [2]
B1	1.9e+06	–
B2	–	binds
